Experimental data published in article PMC4226571, “The E6AP Binding Pocket of the HPV16 E6 Oncoprotein Provides a Docking Site for a Small Inhibitory Peptide Unrelated to E6AP, Indicating Druggability of E6” (PLoS ONE, 2014).

Assays:
[1] = molecular target: pep11** fused to the GAL4 DNA binding domain; test: mammalian two-hybrid; conditions: HeLa cells; read off a plot
[2] = molecular target: E6APpep fused to the GAL4 DNA binding domain; test: mammalian two-hybrid; conditions: HeLa cells; read off a plot
[3] = molecular target: pep11** fused to the GAL4 DNA binding domain; test: mammalian two-hybrid; conditions: HeLa cells; read off a plot; remark: listed apart in the source
[4] = molecular target: E6APpep fused to the GAL4 DNA binding domain; test: mammalian two-hybrid; conditions: HeLa cells; read off a plot; remark: listed apart in the source
[5] = molecular target: T1, wildtype HPV16 E6 fused to the VP16 transcriptional activation domain, P03126; test: mammalian two-hybrid; conditions: chain shown with the change; HeLa cells; parent: est. 19; read off a plot
T1 chain: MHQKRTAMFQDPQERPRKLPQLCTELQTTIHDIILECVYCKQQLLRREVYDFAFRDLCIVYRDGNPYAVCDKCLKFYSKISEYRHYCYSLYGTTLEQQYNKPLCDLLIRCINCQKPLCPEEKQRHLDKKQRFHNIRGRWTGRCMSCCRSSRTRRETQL

[6] = molecular target: T2, E6APpep fused to the GAL4 DNA binding domain (human); test: two-hybrid; mammalian two-hybrid (CheckMate) in HeLa cells; peptides fused to GAL4-BD (pBIND), E6 proteins fused to VP16-AD (pACT); luciferase reporter pG5luc, normalized for pCMV-Gal; conditions: partners not purified
T2 construct: The functional row used hrGFP-E6APpep; also called E6APpep-GAL4-BD
T2 chain: IPESSELTLQELLGEERR

[7] = molecular target: T3, pep11** fused to the GAL4 DNA binding domain; test: two-hybrid; conditions: partners not purified
T3 construct: also called pep11**-GAL4-BD
T3 chain: KEKEEYNSNCSCIACIGLI

## wildtype HPV16 E6 fused to the VP16 transcriptional activation domain (from UniProt P03126) R48A
[1]
  percent of parent: 110%
[2]
  percent of parent: 98%

## wildtype HPV16 E6 fused to the VP16 transcriptional activation domain (from UniProt P03126) D64A
[1]
  percent of parent: 60%
[2]
  percent of parent: 64%

## wildtype HPV16 E6 fused to the VP16 transcriptional activation domain (from UniProt P03126) K108A
[1]
  percent of parent: 140%
[2]
  percent of parent: 93%

## wildtype HPV16 E6 fused to the VP16 transcriptional activation domain (from UniProt P03126) C140E
[1]
  percent of parent: 150%
[2]
  percent of parent: 140%

## wildtype HPV16 E6 fused to the VP16 transcriptional activation domain (from UniProt P03126) D120K
[1]
  percent of parent: 91%
[2]
  percent of parent: 100%

## wildtype HPV16 E6 fused to the VP16 transcriptional activation domain (from UniProt P03126) D120A
[1]
  percent of parent: 100%
[2]
  percent of parent: 120%

## wildtype HPV16 E6 fused to the VP16 transcriptional activation domain (from UniProt P03126) I128E
[1]
  percent of parent: 10%
[2]
  percent of parent: 48%

## wildtype HPV16 E6 fused to the VP16 transcriptional activation domain (from UniProt P03126) H24Q
[1]
  percent of parent: 74%
[2]
  percent of parent: 87%

## wildtype HPV16 E6 fused to the VP16 transcriptional activation domain (from UniProt P03126) K121A
[1]
  percent of parent: 170%
[2]
  percent of parent: 120%

## wildtype HPV16 E6 fused to the VP16 transcriptional activation domain (from UniProt P03126) K122A
[1]
  percent of parent: 170%
[2]
  percent of parent: 110%

## wildtype HPV16 E6 fused to the VP16 transcriptional activation domain (from UniProt P03126) L67A
[1]
  percent of parent: 46%
[2]
  percent of parent: 48%

## wildtype HPV16 E6 fused to the VP16 transcriptional activation domain (from UniProt P03126) H24R
[1]
  percent of parent: 57%
[2]
  percent of parent: 79%

## wildtype HPV16 E6 fused to the VP16 transcriptional activation domain (from UniProt P03126) V62A
[1]
  percent of parent: 61%
[2]
  percent of parent: 63%

## wildtype HPV16 E6 fused to the VP16 transcriptional activation domain (from UniProt P03126) I23Q
[1]
  percent of parent: 70%
[2]
  percent of parent: 66%

## wildtype HPV16 E6 fused to the VP16 transcriptional activation domain (from UniProt P03126) L119E
[1]
  percent of parent: 100%
[2]
  percent of parent: 88%

## wildtype HPV16 E6 fused to the VP16 transcriptional activation domain (from UniProt P03126) R39A
[1]
  percent of parent: 89%
[2]
  percent of parent: 78%

## wildtype HPV16 E6 fused to the VP16 transcriptional activation domain (from UniProt P03126) V53E
[1]
  percent of parent: 7%
[2]
  percent of parent: 45%

## wildtype HPV16 E6 fused to the VP16 transcriptional activation domain (from UniProt P03126) R131E
[1]
  percent of parent: 49%
[2]
  percent of parent: 41%

## wildtype HPV16 E6 fused to the VP16 transcriptional activation domain (from UniProt P03126) R55A
[3]
  percent of parent: 130%
[4]
  percent of parent: 64%
[1]
  percent of parent: 130%
[2]
  percent of parent: 64%

## wildtype HPV16 E6 fused to the VP16 transcriptional activation domain (from UniProt P03126) R40A
[1]
  percent of parent: 120%
[2]
  percent of parent: 110%

## wildtype HPV16 E6 fused to the VP16 transcriptional activation domain (from UniProt P03126) R102E
[1]
  percent of parent: 10%
[2]
  percent of parent: 43%

## wildtype HPV16 E6 fused to the VP16 transcriptional activation domain (from UniProt P03126) Q35A
[1]
  percent of parent: 100%
[2]
  percent of parent: 110%

## wildtype HPV16 E6 fused to the VP16 transcriptional activation domain (from UniProt P03126) Q107A
[1]
  percent of parent: 100%
[2]
  percent of parent: 79%

## wildtype HPV16 E6 fused to the VP16 transcriptional activation domain (from UniProt P03126) L100A
[1]
  percent of parent: 130%
[2]
  percent of parent: 130%

## wildtype HPV16 E6 fused to the VP16 transcriptional activation domain (from UniProt P03126) I128A
[1]
  percent of parent: 17%
[2]
  percent of parent: 52%

## wildtype HPV16 E6 fused to the VP16 transcriptional activation domain (from UniProt P03126) H126E
[1]
  percent of parent: 98%
[2]
  percent of parent: 63%

## wildtype HPV16 E6 fused to the VP16 transcriptional activation domain (from UniProt P03126) R129E
[1]
  percent of parent: 120%
[2]
  percent of parent: 110%

## wildtype HPV16 E6 fused to the VP16 transcriptional activation domain (from UniProt P03126) L50E
[1]
  percent of parent: 5%
[2]
  percent of parent: 42%

## wildtype HPV16 E6 fused to the VP16 transcriptional activation domain (from UniProt P03126) T133A
[1]
  percent of parent: 130%
[2]
  percent of parent: 150%

## wildtype HPV16 E6 fused to the VP16 transcriptional activation domain (from UniProt P03126) C51F
[1]
  percent of parent: 110%
[2]
  percent of parent: 110%

## wildtype HPV16 E6 fused to the VP16 transcriptional activation domain (from UniProt P03126) K34E
[1]
  percent of parent: 120%
[2]
  percent of parent: 74%

## wildtype HPV16 E6 fused to the VP16 transcriptional activation domain (from UniProt P03126) N105A
[1]
  percent of parent: 110%
[2]
  percent of parent: 80%

## wildtype HPV16 E6 fused to the VP16 transcriptional activation domain (from UniProt P03126) L38E
[1]
  percent of parent: 140%
[2]
  percent of parent: 170%

## wildtype HPV16 E6 fused to the VP16 transcriptional activation domain (from UniProt P03126) H126A
[1]
  percent of parent: 110%
[2]
  percent of parent: 80%

## wildtype HPV16 E6 fused to the VP16 transcriptional activation domain (from UniProt P03126) R129A
[1]
  percent of parent: 190%
[2]
  percent of parent: 290%

## wildtype HPV16 E6 fused to the VP16 transcriptional activation domain (from UniProt P03126) D64H
[1]
  percent of parent: 57%
[2]
  percent of parent: 64%

## wildtype HPV16 E6 fused to the VP16 transcriptional activation domain (from UniProt P03126) Q35R
[1]
  percent of parent: 100%
[2]
  percent of parent: 120%

## wildtype HPV16 E6 fused to the VP16 transcriptional activation domain (from UniProt P03126) S74R
[1]
  percent of parent: 64%
[2]
  percent of parent: 70%

## wildtype HPV16 E6 fused to the VP16 transcriptional activation domain (from UniProt P03126) D44R
[1]
  percent of parent: 45%
[2]
  percent of parent: 67%

## wildtype HPV16 E6 fused to the VP16 transcriptional activation domain (from UniProt P03126) Y70A
[3]
  percent of parent: 57%
[4]
  percent of parent: 99%
[1]
  percent of parent: 57%
[2]
  percent of parent: 99%

## wildtype HPV16 E6 fused to the VP16 transcriptional activation domain (from UniProt P03126) Y32A
[1]
  percent of parent: 7%
[2]
  percent of parent: 53%

B1: pep11** fused to the GAL4 DNA binding domain pep11**m (peptide)
chain: KEKEEYNSNSSSIASIGLI
[5]
  response: 1 RLA

B2: wildtype HPV16 E6 fused to the VP16 transcriptional activation domain (natural protein)
chain: T1 chain
notes: source: HeLa, transfected (vector pACT), mammalian two-hybrid fusion
[6]
  fold increase of luciferase activity over control-transfected cells: ~3 fold
[7]
  fold increase of luciferase activity over control-transfected cells: ~19 fold
